This assay deals with T1, potato lectin (Solanum tuberosum, UniProt Q9S8M0).
T1 construct: purchased Sigma
T1 sequence (Q9S8M0 whole entry, looked up): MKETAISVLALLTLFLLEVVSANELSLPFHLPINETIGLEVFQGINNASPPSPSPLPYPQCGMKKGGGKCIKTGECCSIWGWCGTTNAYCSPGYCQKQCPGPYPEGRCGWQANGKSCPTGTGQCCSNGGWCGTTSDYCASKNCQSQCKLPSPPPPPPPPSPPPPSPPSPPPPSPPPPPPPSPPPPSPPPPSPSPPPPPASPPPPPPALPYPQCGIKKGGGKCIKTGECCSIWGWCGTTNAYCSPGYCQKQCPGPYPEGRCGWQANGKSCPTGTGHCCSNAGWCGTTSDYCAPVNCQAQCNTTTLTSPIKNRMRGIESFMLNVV
Briefly: ELISA-like assay, microcapsules with monovalent or bivalent VHH, potato lectin. Type of assay: binding. The arrangement: Surface area of bound microcapsules: unit not given here. The note with it: for Surface area of bound microcapsules: Uvitex microcapsules. The source says: Bivalent VHH constructs were produced in bacteria by cloning two VHH sequences in tandem into the pASF22 vector, creating a fusion of two VHH with a 9 glycine-serine linker (GGGGSGGGS (SEQ ID NO:50)) in between the two VHH. pASF22 is an in-house produced pMES derivative. The tags that were used were C-terminal c-Myc (EQKLISEEDLN (SEQ ID NO:51)) and hexahistidine (HHHHHH (SEQ ID NO:52)). A triple alanine linker (AAA) was placed in between the C-terminal end of the VHH and the c-Myc tag and a glycine-alanine-alanine (GAA) linker was used in between the C-terminal end of the c-Myc tag and the hexahistidine tag. The complete sequence C-terminal of the bivalent VHH that was used: AAA-EQKLISEEDLN-GAA-HHHHHH (SEQ ID NO:53). Fresh overnight cultures were produced by starting from colony streaks and inoculation of 2×TY media supplemented with 2% glucose and 100 μg/ml ampicillin. The overnight cultures were used to inoculate fresh cultures 1:100 in 2×TY media with 0.1% glucose and 100 μg/ml ampicillin. After growing at 37° C. in a shaking incubator for 3 hours, IPTG was added to a 1 mM final concentration and recombinant bivalent VHH were produced during an additional incubation for 4 hours. Cells were spun down and resuspended in 1/50th of the original culture volume of PBS and incubated with head-over-head rotation at 4° C. for 30 minutes. Spheroplasts were spun down by centrifugation at 3,000 g and 4° C. for 20 minutes. Supernatants were transferred to fresh tubes and centrifuged again at 3,000 g and 4° C. for 20 minutes. The supernatant was collected and sodium chloride concentration was adjusted to 500 mM and imidazole concentration to 20 mM. Hexahistidine-tagged bivalent VHH were purified from the extracts using HisTrap FF Crude 5 ml IMAC columns (GE Lifesciences) and HiLoad 16/60 Superdex 75 prep grade gel filtration column (GE Lifesciences) on an AKTAxpress system (GE Lifesciences) following standard procedures.
Next, it was investigated if binding of microcapsules to surfaces could be improved by using targeting agents comprising multivalent VHH. A series of parallel couplings was performed with equal amounts of monovalent VHH, bivalent VHH, and unrelated VHH. Success of coupling of VHH and multivalent VHH were analyzed as described in Example 4. An ELISA-like assay was performed using high bind half area microplates (Greiner Bio-One) coated with 5 μg/well potato lectin. Control wells included blank wells or wells coated with unrelated antigens. Plates were washed three times with PBS with 0.05%-TWEEN®-20 and blocked with 5% skimmed milk in PBS for 1 to 2 hours. VHH-coupled Uvitex-containing microcapsules were diluted to appropriate densities in 1% skimmed milk in PBS with 0.05%-TWEEN®-20. Five-fold serial dilution series were prepared and allowed to bind to the surface to compare binding of microcapsules coupled with monovalent or bivalent VHH. Microcapsules were added to the antigen-coated or control wells and allowed to bind for 1 hour. Unbound microcapsules were removed by washing five times with PBS with 0.05%-TWEEN®-20. The bottoms of ELISA plate wells were analyzed for bound microcapsules on a macrozoom microscope system (Nikon). Microcapsules were counted using Volocity image analysis software (Perkin Elmer). A DAPI filter was used to visualize Uvitex microcapsules. […] The surface area of microcapsules with coupled bivalent VHH was 15-fold above the surface area of blank microcapsules applied at this microcapsule density while the surface area of microcapsules with monovalent VHH was only six-fold above the surface area of blank microcapsules applied at this microcapsule density. This difference could be explained by an increase in binding strength due to additional avidity of the bivalent VHH compared to monovalent VHH, it could also be that the use of bivalent VHH increases flexibility and spacer length of the coupled targeting agents on microcapsules, or a combination of both.
For orientation: In an ELISA, binding on a coated surface is turned into a signal by an enzyme label.

B1: Microcapsules containing uvitex OB VHH 3E6: polyurea microcapsules containing the fluorescent tracer Uvitex OB, coupled with (monovalent) VHH 3E6 (conjugate)
VHH: QVQLQESGGGLVQPGGTLSLSCAASGFNVRWYGMGWFRQAPGKEREGVACISALQETTAYADSVKGRFTLSRDNPKNTLSLQMNNLQPEDTGVYYCATTDCDDSSRMTYTSYLGQGTQVTVSS
modifications: left off: small tags and cut ends
notes: polyurea microcapsules containing the fluorescent tracer Uvitex OB, coupled with (monovalent) VHH 3E6
B1: under “application of 25-fold less microcapsules, potato lectin”, the “surface area of bound microcapsules above the surface area of blank microcapsules” value was “six-fold”. Moreover, the “Surface area of bound microcapsules” value (no coating (first series, with potato lectin rows), surface coverage 100%) came out at 74.536; the “Surface area of bound microcapsules” value (potato lectin, surface coverage 4%) was found to be 59.377; the “Surface area of bound microcapsules” value (potato lectin, surface coverage 20%) was 307.478; the “Surface area of bound microcapsules” value (potato lectin, surface coverage 100%) is 415.773.

(Values after US8598081B2, “Specific delivery of agrochemicals” (priority 2010, dated 2013).)
